Reference: patent publication US20230235040A1 (ALMIRALL S A, published 2023)
Changes are numbered by the printed parent chain. Values belong to the binder of their own block, whether it stands above or below them.

How the values were obtained:
[1] = molecular target: T1, hu-IL-36β (human IL-36β, N-terminally truncated active form R5-E157) (human); test: SPR (Biacore 8K), biotinylated IL-36 captured on CAP chip, Fab injected, 25°C
T1 construct: Purification tag cleaved off; Biotinylated where captured; also called hu-IL-36b
T1 chain: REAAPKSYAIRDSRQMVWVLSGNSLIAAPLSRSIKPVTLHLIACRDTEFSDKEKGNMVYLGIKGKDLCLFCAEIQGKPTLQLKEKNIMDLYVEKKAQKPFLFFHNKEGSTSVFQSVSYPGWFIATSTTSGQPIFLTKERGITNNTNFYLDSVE
Method: (§1) Briefly, a 1:4 dilution of Biotin CAPture Reagent (GE Healthcare, Chicago, Ill., USA)) into HBS-EP buffer (GE Healthcare, Chicago, Ill., USA; 0.01 M HEPES pH 7.4, 0.15 M NaCl, 3 mM EDTA, 0.005% Surfactant P20) was applied to a CAP sensor chip at 2 μL/min flow rate. […] FC1 was kept as a reference. […] The sensorgram was recorded and subject to reference and buffer subtraction before data analysis with the BIACORE® 8K Evaluation Software (GE Healthcare, Chicago, Ill., USA; version 1.1.1.7442). Association rates (kₒₙ) and dissociation rates (koff) were calculated using a simple one-to-one Langmuir binding model. The equilibrium dissociation constant (KD) was calculated as the ratio of koff/kₒₙ.

[2] = molecular target: T1, hu-IL-36β (human IL-36β, N-terminally …); test: SPR (Biacore 8K), biotinylated IL-36 captured on CAP chip, Fab injected, 37°C
Method: as §1

[3] = molecular target: T2, hu-IL-36α (human IL-36α, N-terminally truncated active form K6-F158) (human, UniProt Q9UHA7 6-158); test: cell-based or functional assay
T2 sequence: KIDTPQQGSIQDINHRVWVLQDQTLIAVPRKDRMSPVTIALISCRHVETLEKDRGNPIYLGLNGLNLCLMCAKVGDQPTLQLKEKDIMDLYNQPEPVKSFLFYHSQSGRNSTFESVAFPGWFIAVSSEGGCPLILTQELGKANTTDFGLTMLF

[4] = molecular target: T3, hu-IL-36γ (human IL-36γ, N-terminally truncated active form S18-D169) (human, UniProt Q9NZH8 18-169); test: cell-based or functional assay
T3 sequence: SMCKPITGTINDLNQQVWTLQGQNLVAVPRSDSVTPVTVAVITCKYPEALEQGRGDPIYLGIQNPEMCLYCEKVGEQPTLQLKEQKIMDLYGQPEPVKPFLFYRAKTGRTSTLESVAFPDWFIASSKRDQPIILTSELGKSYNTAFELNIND

[5] = molecular target: T2, hu-IL-36α (human IL-36α, N-terminally …); test: SPR (Biacore 8K), biotinylated hu-IL-36 captured on CAP chip, Fab injected, 37°C
Method: (§2) Briefly, a 1:4 dilution of Biotin CAPture Reagent (GE) into HBS-EP buffer (0.01 M HEPES pH 7.4, 0.15 M NaCl, 3 mM EDTA, 0.005% Surfactant P20) was applied to a CAP sensor chip at 2 uL/min flow rate. For kinetics measurements, 3 nM biotinylated human IL-36α and human IL-36γ was captured at 10 uL/min to achieve ˜50 response units in the second flow cell (FC2). FC1 was kept as a reference. […] The sensorgram was recorded and subject to reference and buffer subtraction before evaluating by BIACORE® 8K Evaluation Software (version 1.1.1.7442). Association rates (kₒₙ) and dissociation rates (koff) were calculated using a simple one-to-one Langmuir binding model.

[6] = molecular target: T3, hu-IL-36γ (human IL-36γ, N-terminally …); test: as above
Method: as §2

[7] = molecular target: T2, hu-IL-36α (human IL-36α, N-terminally …); test: phage competition ELISA: Fab on phage, soluble hu-IL-36α titrated against coated hu-IL-36α
Method: (§3) Selected phages with top binding signal were purified to perform phage competition ELISA. The optimal phage concentration was incubated with serially-diluted human IL-36α or human IL-36γ in ELISA buffer in NUNC F plate for two hours. 80 μL of the mixture was transferred to human IL-36α or human IL-36γ coated wells for 15 min to capture unbound phage. The plate was washed with wash buffer (0.05% TWEEN®20 in PBS), and HRP-conjugated anti-M13 antibody (Sino biological, Cat #11973-MM05-H-50) was added in ELISA buffer for 30 min. The plates were washed and developed as described above. The absorbance at 450 nm was plotted as a function of antigen concentration in solution to determine phage IC50.

[8] = molecular target: T3, hu-IL-36γ (human IL-36γ, N-terminally …); test: phage competition ELISA: Fab on phage, soluble hu-IL-36γ titrated against coated hu-IL-36γ
Method: as §3

[9] = molecular target: T2, hu-IL-36α (human IL-36α, N-terminally …); test: SPR (Biacore 8K), biotinylated IL-36 captured on CAP chip, Fab injected, 25°C
Method: as §1

[10] = molecular target: T3, hu-IL-36γ (human IL-36γ, N-terminally …); test: as above
Method: as §1

[11] = molecular target: T2, hu-IL-36α (human IL-36α, N-terminally …); test: SPR (Biacore 8K), biotinylated IL-36 captured on CAP chip, Fab injected, 37°C
Method: as §1

[12] = molecular target: T3, hu-IL-36γ (human IL-36γ, N-terminally …); test: as above
Method: as §1

[13] = molecular target: T1, hu-IL-36β (human IL-36β, N-terminally …); test: cell-based or functional assay
[14] = molecular target: T1, hu-IL-36β (human IL-36β, N-terminally …); test: ELISA, yeast Fab supernatant, anti-Fab-HRP
[15] = molecular target: T4, cy-IL-36β (cynomolgus monkey IL-36β, W5-E157) (cynomolgus monkey); test: ELISA on coated cy- and hu-IL-36β, yeast Fab supernatant; ratio of OD450
T4 construct: Purification tag cleaved off
T4 chain: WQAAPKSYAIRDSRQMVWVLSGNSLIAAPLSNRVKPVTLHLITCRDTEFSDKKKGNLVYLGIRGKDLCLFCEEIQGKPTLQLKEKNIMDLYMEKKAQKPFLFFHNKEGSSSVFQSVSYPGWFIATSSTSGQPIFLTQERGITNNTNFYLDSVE
Method: Cell supernatants from yeast clones of interest were tested for binding to human IL-36 by ELISA as described above. To compare the binding of these supernatants to human and cynomolgus monkey IL-36, IL-36 proteins were coated at 2.5 μg/mL on 96-well Nunc MaxiSorp plates (Thermo Fisher) and the plates blocked with 5% goat serum in PBS. Yeast supernatants were diluted 1:1 with PBST containing 1% w/v BSA and added to the ELISA plates for 1-1.5 hours with agitation. Bound Fab was detected by incubating the plates with F(ab′)2-HRP (Jackson ImmunoResearch). The ELISAs were developed for 3-10 minutes by addition of 50 μL/well of tetramethylbenzidine (TMB) microwell peroxidase substrate (Scytek Laboratories, Inc., Logan, Utah, USA) and enzymatic color development was stopped by acidification with 50 µL/well of 2 N H₂SO₄ (Sigma-Aldrich Corporation, St. Louis, Mo., USA). The optical density of the samples at a wavelength of 450 nm (OD450) was analyzed with a SpectraMax i3X plate reader (Molecular Devices LLC, San Jose, Calif., USA). To estimate the relative affinity of each clone for cynomolgus monkey IL-36 and human IL-36 in this assay, a ratio of OD450 (OD450_cyIL-36/OD450_huIL-36) was calculated for each clone and IL-36 cytokine.

B2: mAb2 Fab (Fab, V domains shown)
VH: ELQLQESGPGLVKPSETLSLTCTVSGGSISTSSYYWGWIRQPPGKGLEWIGSIYYTGNTYYNPSLKSRVTISVDTSKNQFSLKLSSVTAADTAVYYCARVRYGVGVPRYFDPWGQGTLVTVSS
VL: ESVLTQPPSVSGAPGQRVTISCTGSSSNIGAHYDVHWYQQLPGTAPKLLIYGNDNRPSGVPDRFSGSKSGTSASLAITGLQAEDEADYYCQSYDYSLSGYVFGGGTKLTVL
IC50, IL-36-stimulated IL-8 secretion by HaCat cells [3]: 300 pM
IC50, IL-36-stimulated IL-8 secretion by HaCat cells [4]: 960 pM
apparent Kd (pooled screen) [5]: 230 pM
apparent koff (pooled screen) [5]: 0.000264 s⁻¹
apparent kon (pooled screen) [5]: 1.16e+06 M⁻¹ s⁻¹
apparent Kd (pooled screen) [6]: 410 pM
apparent koff (pooled screen) [6]: 0.000574 s⁻¹
apparent kon (pooled screen) [6]: 1.39e+06 M⁻¹ s⁻¹
apparent IC50 (pooled screen) [7]: 1200 pM
apparent IC50 (pooled screen) [8]: 3200 pM

B3: mAb2.0 Fab (purified, lysyl-C cleaved from recombinant IgG1) (Fab, V domains shown)
VH: B2 VH with E1Q
VL: B2 VL with E1Q
notes: also called purified mAb2.0 Fab
Kd [9]: 1200 pM
koff [9]: 0.000413 s⁻¹
kon [9]: 345000 M⁻¹ s⁻¹
Kd [10]: 980 pM
koff [10]: 0.000358 s⁻¹
kon [10]: 366000 M⁻¹ s⁻¹
Kd [11]: 300 pM
koff [11]: 0.000502 s⁻¹
kon [11]: 1.69e+06 M⁻¹ s⁻¹
Kd [12]: 1610 pM
koff [12]: 0.00108 s⁻¹
kon [12]: 671000 M⁻¹ s⁻¹

B5: mAb2.11 Fab (Fab, V domains shown)
VH: B2 VH with T31E, N58E, N62A, V100L
VL: B2 VL
notes: Recombinant Fab with 8xHis tag (Expi293F)
IC50, IL-36-stimulated IL-8 secretion by HaCat cells [3]: 420 pM
IC50, IL-36-stimulated IL-8 secretion by HaCat cells [4]: 1050 pM
Kd [5]: 130 pM
koff [5]: 0.000244 s⁻¹
kon [5]: 1.91e+06 M⁻¹ s⁻¹
Kd [6]: 110 pM
koff [6]: 0.000214 s⁻¹
kon [6]: 1.92e+06 M⁻¹ s⁻¹

B6: mAb2.10 Fab (Fab, V domains shown)
VH: B2 VH with T31D, N58E, N62A, Y109H
VL: B2 VL
notes: as for B5
IC50, IL-36-stimulated IL-8 secretion by HaCat cells [3]: 380 pM
IC50, IL-36-stimulated IL-8 secretion by HaCat cells [4]: 1090 pM
Kd [5]: 150 pM
koff [5]: 0.000222 s⁻¹
kon [5]: 1.49e+06 M⁻¹ s⁻¹
Kd [6]: 130 pM
koff [6]: 0.00018 s⁻¹
kon [6]: 1.37e+06 M⁻¹ s⁻¹

The remaining lines, values ahead:

Kd [1]: 1790 pM
koff [1]: 7.23e-05 s⁻¹
kon [1]: 40400 M⁻¹ s⁻¹
Kd [2]: 1930 pM
koff [2]: 0.000118 s⁻¹
kon [2]: 61100 M⁻¹ s⁻¹
B1: mAb6.0 Fab (purified, lysyl-C cleaved from recombinant IgG1) (Fab, V domains shown)
VH: QLQLQESGPGLVKPSETLSLTCTVSGGSITSSNYYWGWIRQPPGKGLEWIGSIDYTGSTYYNPSLKSRVTISVDTSKNQFSLKLSSVTAADTAVYYCARGKYYETYLGFDVWGQGTLVTVSS
VL: B2 VL with E1Q, H32G, D54T, Y95I, Y100W
notes: also called purified mAb6.0 Fab

% Inhibition, HEK-Blue IL-36R SEAP reporter assay [13]: 86%
ELISA OD450 [14]: 2.34 OD450
ELISA OD450cyIL-36/OD450hu-IL-36 [15]: 4 ratio
B4: mAb6.0 Fab (yeast clone culture supernatant) (Fab, V domains shown)
VH: B1 VH
VL: B2 VL with E1Q, H32G, D54T, Y95I, Y100W
notes: Human Fab secreted by the yeast clone, not purified

% Inhibition, HEK-Blue IL-36R SEAP reporter assay [13]: 84%
ELISA OD450 [14]: 2.58 OD450
ELISA OD450cyIL-36/OD450hu-IL-36 [15]: 3.9 ratio
B7: mAb7.0 Fab (yeast clone culture supernatant) (Fab, V domains shown)
VH: QVQLVESGGGVVQPGRSLRLSCAASGFTFSSYGMHWVRQAPGKGLEWVAVISYGGSERYYADSVKGRFTISRDNSKNTLYLQMNSLRAEDTAVYYCAREPWYSSRGWTGYGFDVWGQGTLVTVSS
VL: EIVLTQSPGTLSLSPGERATLSCRASQSVSSNYLAWYQQKPGQAPKLLIYSASSLQSGVPSRFSGSGSGTDFTLTISSLQPEDFATYYCQQTYSYPPTFGQGTKVEIK
notes: as for B4

% Inhibition, HEK-Blue IL-36R SEAP reporter assay [13]: 85%
ELISA OD450 [14]: 2.63 OD450
B8: mAb8.0 Fab (yeast clone culture supernatant) (Fab, V domains shown)
VH: QVQLVQSGAEVKKPGSSVKVSCKASGGTFSNYAISWVRQAPGQGLEWMGGILPILGTVDYAQKFQGRVTITADESTSTAYMELSSLRSEDTAVYYCAREPWYRLGAFDVWGQGTLVTVSS
VL: DIQMTQSPSSLSASVGDRVTITCRASQTIYKYLNWYQQKPGKAPKLLIYAASSLQSGVPSRFSGSGSGTDFTLTISSLQPEDFATYYCQQYSSIPYTFGQGTKVEIK
notes: as for B4
